Results: IntAct's records for PubMed 26258632

B1: Mitotic spindle assembly checkpoint protein MAD1 (Homo sapiens), Q9Y6D9 (parent)
chain: MEDLGENTMVLSTLRSLNNFISQRVEGGSGLDISTSAPGSLQMQYQQSMQLEERAEQIRSKSHLIQVEREKMQMELSHKRARVELERAASTSARNYEREVDRNQELLTRIRQLQEREAGAEEKMQEQLERNRQCQQNLDAASKRLREKEDSLAQAGETINALKGRISELQWSVMDQEMRVKRLESEKQELQEQLDLQHKKCQEANQKIQELQASQEARADHEQQIKDLEQKLSLQEQDAAIVKNMKSELVRLPRLERELKQLREESAHLREMRETNGLLQEELEGLQRKLGRQEKMQETLVGLELENERLLAKLQSWERLDQTMGLSIRTPEDLSRFVVELQQRELALKDKNSAVTSSARGLEKARQQLQEELRQVSGQLLEERKKRETHEALARRLQKRVLLLTKERDGMRAILGSYDSELTPAEYSPQLTRRMREAEDMVQKVHSHSAEMEAQLSQALEELGGQKQRADMLEMELKMLKSQSSSAEQSFLFSREEADTLRLKVEELEGERSRLEEEKRMLEAQLERRALQGDYDQSRTKVLHMSLNPTSVARQRLREDHSQLQAECERLRGLLRAMERGGTVPADLEAAAASLPSSKEVAELKKQVESAELKNQRLKEVFQTKIQEFRKACYTLTGYQIDITTENQYRLTSLYAEHPGDCLIFKATSPSGSKMQLLETEFSHTVGELIEVHLRRQDSIPAFLSSLTLELFSRQTVA

Variants of: B1
Conditions: with cenpe_human CENPE

effect of a mutation on the interaction	Variant
disrupting interaction strength	L17A;N18A;N19A;F20A;I21A

Variants of: B1
Conditions: with cenpe_human CENPE
Remark: another data set of the same source

effect of a mutation on the interaction	Variant
decreasing interaction strength	L17A;N18A;N19A;F20A;I21A
